From PMC9177958, “Structures of nonsense-mediated mRNA decay factors UPF3B and UPF3A in complex with UPF2 reveal molecular basis for competitive binding and for neurodevelopmental disorder-causing mutation” (Nucleic Acids Research, 2022)

T1: UPF3B-WT (human, UniProt Q9BZI7-2 1-470)
T1 sequence: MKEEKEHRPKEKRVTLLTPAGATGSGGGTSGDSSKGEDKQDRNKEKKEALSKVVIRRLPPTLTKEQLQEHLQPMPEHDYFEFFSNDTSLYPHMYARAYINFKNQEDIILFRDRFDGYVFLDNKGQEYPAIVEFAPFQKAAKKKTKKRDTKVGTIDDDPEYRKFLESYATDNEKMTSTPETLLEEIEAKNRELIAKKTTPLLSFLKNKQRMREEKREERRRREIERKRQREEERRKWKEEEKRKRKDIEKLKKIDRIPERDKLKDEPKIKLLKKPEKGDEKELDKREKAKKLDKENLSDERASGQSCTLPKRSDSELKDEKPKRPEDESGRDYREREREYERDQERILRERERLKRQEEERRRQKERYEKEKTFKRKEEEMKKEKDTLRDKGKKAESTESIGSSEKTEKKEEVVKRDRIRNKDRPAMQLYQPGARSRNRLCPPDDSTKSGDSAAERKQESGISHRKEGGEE

T2: UPF3B-WT (residues 1–470) (human, UniProt Q9BZI7-2 1-470)
T2 construct: UPF3B, human, isoform 2 (the predominant form found in cells), residues 1-470, printed length 470; also called full-length UPF3B; source: insect cells (MultiBac), purified (Ni-NTA, TEV, reverse IMAC, ion exchange)
T2 sequence (looked up): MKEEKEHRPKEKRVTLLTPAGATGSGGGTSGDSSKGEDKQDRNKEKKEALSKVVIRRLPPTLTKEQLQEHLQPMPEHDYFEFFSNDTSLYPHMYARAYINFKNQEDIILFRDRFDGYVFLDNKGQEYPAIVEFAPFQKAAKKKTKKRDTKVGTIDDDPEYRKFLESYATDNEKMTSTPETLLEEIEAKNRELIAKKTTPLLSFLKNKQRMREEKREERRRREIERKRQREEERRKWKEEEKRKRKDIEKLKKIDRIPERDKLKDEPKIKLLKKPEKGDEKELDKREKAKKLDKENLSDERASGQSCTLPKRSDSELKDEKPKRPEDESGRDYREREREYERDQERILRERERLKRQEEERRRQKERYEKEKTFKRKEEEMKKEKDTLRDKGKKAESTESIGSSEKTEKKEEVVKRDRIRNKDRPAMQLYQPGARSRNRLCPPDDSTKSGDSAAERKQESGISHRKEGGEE

T3: UPF3A-WT (human, UniProt Q9H1J1 1-476)
T3 construct: UPF3A, human, full length; The cloning of UPF3A-WT is not described in the methods; also called full-length UPF3A-WT; source: insect cells (MultiBac), purified (Ni-NTA, TEV, reverse IMAC, ion exchange)
T3 sequence (looked up): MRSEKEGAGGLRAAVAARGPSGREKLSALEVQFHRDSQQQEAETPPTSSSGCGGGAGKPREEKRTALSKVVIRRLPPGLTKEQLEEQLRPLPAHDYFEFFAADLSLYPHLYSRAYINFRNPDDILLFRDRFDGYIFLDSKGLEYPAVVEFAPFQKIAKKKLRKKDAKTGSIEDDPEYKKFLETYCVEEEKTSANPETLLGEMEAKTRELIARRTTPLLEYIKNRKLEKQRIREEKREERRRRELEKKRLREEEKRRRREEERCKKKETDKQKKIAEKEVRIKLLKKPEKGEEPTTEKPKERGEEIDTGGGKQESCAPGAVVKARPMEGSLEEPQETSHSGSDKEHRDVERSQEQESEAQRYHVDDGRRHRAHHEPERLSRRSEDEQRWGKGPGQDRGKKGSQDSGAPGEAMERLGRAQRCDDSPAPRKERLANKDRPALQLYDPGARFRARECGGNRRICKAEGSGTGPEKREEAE

B1: biotinylated Avi-UPF2-MIF4GIII (domain or fragment, UniProt Q9HAU5 761-1054, looked up)
chain: EKTVKKKRPPLQEYVRKLLYKDLSKVTTEKVLRQMRKLPWQDQEVKDYVICCMINIWNVKYNSIHCVANLLAGLVLYQEDVGIHVVDGVLEDIRLGMEVNQPKFNQRRISSAKFLGELYNYRMVESAVIFRTLYSFTSFGVNPDGSPSSLDPPEHLFRIRLVCTILDTCGQYFDRGSSKRKLDCFLVYFQRYVWWKKSLEVWTKDHPFPIDIDYMISDTLELLRPKIKLCNSLEESIRQVQDLEREFLIKLGLVNDKDSKDSMTEGENLEEDEEEEEGGAETEEQSGNESEVNE
modifications: biotin on the Avi tag (BirA)
notes: UPF2, third middle-domain of eukaryotic initiation factor 4G (MIF4GIII), residues 761-1054; Avi tag added by site-directed mutagenesis to UPF2-MIF4GIII; also called immobilized UPF2-MIF4GIII; source: E. coli BL21 Rosetta2(DE3), purified (Ni-NTA, TEV, reverse IMAC, ion exchange); biotinylated with BirA, SEC

Legend:
UPF3B-WT = biological target: T1, UPF3B-WT; assay: fluorescence anisotropy; FA: 5 nM probe, 150 mM NaCl, 25 mM HEPES pH 7.45, 1 mM TCEP, 20 C; EMSA: 250 nM probe, 25 mM HEPES pH 7.45, 2 mM MgCl2, 150 mM NaCl, 0.5 mM TCEP, on ice; conditions: protein: recombinant, tags: 6xHis removed by TEV
[1] = biological target: B1; assay: SPR; 350 RU biotinylated Avi-UPF2-MIF4GIII immobilised on an SA chip (Biacore T200); UPF3B and UPF3A constructs injected; 15°C; 300 mM NaCl, 25 mM HEPES pH 7.4, 0.25 mM TCEP, 0.05% Tween-20; global fit, 1:1 binding model; conditions: both partners purified
[2] = biological target: T2, UPF3B-WT (residues 1–470); assay: as above; conditions: both partners purified
UPF3A-WT = biological target: T3, UPF3A-WT; assay: as above; conditions: both partners purified

| Binder | Kd [1] [nM] | also measured |
| --- | --- | --- |
| CCCTGAGCTGACGCAGCACCTGGG (ssDNA) [24mer ssDNA] | – | Kd (UPF3B-WT; label: 5' HEX, single strand): 190 nM |
| UPF3B-41–143 (domain or fragment, human, UniProt Q9BZI7 41-143, looked up, UPF3B, human, RRM-L domain, residues 41-143; also called RRM-L alone; RRM-L only; source: E. coli BL21 Rosetta2(DE3), purified (Ni-NTA, TEV, reverse IMAC, ion exchange)) DRNKEKKEALSKVVIRRLPPTLTKEQLQEHLQPMPEHDYFEFFSNDTSLYPHMYARAYINFKNQEDIILFRDRFDGYVFLDNKGQEYPAIVEFAPFQKAAKKK | 720 | – |
| UPF3B-41–189 (domain or fragment, human, UniProt Q9BZI7 41-189, looked up, UPF3B, human, RRM-L and N-terminal part of the middle-domain (NOPS-L), residues 41-189; also called UPF3B-1–189 (as printed once); source: E. coli BL21 Rosetta2(DE3), purified (Ni-NTA, TEV, reverse IMAC, ion exchange)) DRNKEKKEALSKVVIRRLPPTLTKEQLQEHLQPMPEHDYFEFFSNDTSLYPHMYARAYINFKNQEDIILFRDRFDGYVFLDNKGQEYPAIVEFAPFQKAAKKKTKKRDTKVGTIDDDPEYRKFLESYATDNEKMTSTPETLLEEIEAKN | 3.6 | – |
| UPF3B-41–189 F163A (domain or fragment, human, UniProt Q9BZI7 41-189, looked up, UPF3B, human, residues 41-189 with F163A; it is named in the results; source: E. coli BL21 Rosetta2(DE3), purified (Ni-NTA, TEV, reverse IMAC, ion exchange)) DRNKEKKEALSKVVIRRLPPTLTKEQLQEHLQPMPEHDYFEFFSNDTSLYPHMYARAYINFKNQEDIILFRDRFDGYVFLDNKGQEYPAIVEFAPFQKAAKKKTKKRDTKVGTIDDDPEYRKALESYATDNEKMTSTPETLLEEIEAKN | 90 | – |
| UPF3B-41–189 Y160A + Y167A (domain or fragment, human, UniProt Q9BZI7 41-189, looked up, UPF3B, human, residues 41-189 with Y160A and Y167A; source: E. coli BL21 Rosetta2(DE3), purified (Ni-NTA, TEV, reverse IMAC, ion exchange)) DRNKEKKEALSKVVIRRLPPTLTKEQLQEHLQPMPEHDYFEFFSNDTSLYPHMYARAYINFKNQEDIILFRDRFDGYVFLDNKGQEYPAIVEFAPFQKAAKKKTKKRDTKVGTIDDDPEARKFLESAATDNEKMTSTPETLLEEIEAKN | ~130 | – |
| UPF3B-41–189 Y160A (domain or fragment, human, UniProt Q9BZI7 41-189, looked up, UPF3B, human, residues 41-189 with Y160A; source: E. coli BL21 Rosetta2(DE3), purified (Ni-NTA, TEV, reverse IMAC, ion exchange)) DRNKEKKEALSKVVIRRLPPTLTKEQLQEHLQPMPEHDYFEFFSNDTSLYPHMYARAYINFKNQEDIILFRDRFDGYVFLDNKGQEYPAIVEFAPFQKAAKKKTKKRDTKVGTIDDDPEARKFLESYATDNEKMTSTPETLLEEIEAKN | 88 | – |
| UPF3B-41–189 Y167A (domain or fragment, human, UniProt Q9BZI7 41-189, looked up, UPF3B, human, residues 41-189 with Y167A; source: E. coli BL21 Rosetta2(DE3), purified (Ni-NTA, TEV, reverse IMAC, ion exchange)) DRNKEKKEALSKVVIRRLPPTLTKEQLQEHLQPMPEHDYFEFFSNDTSLYPHMYARAYINFKNQEDIILFRDRFDGYVFLDNKGQEYPAIVEFAPFQKAAKKKTKKRDTKVGTIDDDPEYRKFLESAATDNEKMTSTPETLLEEIEAKN | 3.3 | – |
| UPF3B-41–189 Y167D (domain or fragment, human, UniProt Q9BZI7 41-189, looked up, UPF3B, human, residues 41-189 with Y167D; also called Y167D (phosphomimetic); source: E. coli BL21 Rosetta2(DE3), purified (Ni-NTA, TEV, reverse IMAC, ion exchange)) DRNKEKKEALSKVVIRRLPPTLTKEQLQEHLQPMPEHDYFEFFSNDTSLYPHMYARAYINFKNQEDIILFRDRFDGYVFLDNKGQEYPAIVEFAPFQKAAKKKTKKRDTKVGTIDDDPEYRKFLESDATDNEKMTSTPETLLEEIEAKN | 7.4 | – |
| UPF3B-41–189 Y160D + Y167D (domain or fragment, human, UniProt Q9BZI7 41-189, looked up, UPF3B, human, residues 41-189 with Y160D and Y167D; source: E. coli BL21 Rosetta2(DE3), purified (Ni-NTA, TEV, reverse IMAC, ion exchange)) DRNKEKKEALSKVVIRRLPPTLTKEQLQEHLQPMPEHDYFEFFSNDTSLYPHMYARAYINFKNQEDIILFRDRFDGYVFLDNKGQEYPAIVEFAPFQKAAKKKTKKRDTKVGTIDDDPEDRKFLESDATDNEKMTSTPETLLEEIEAKN | ~130 | – |
| UPF3B-41–189 Y160D (domain or fragment, human, UniProt Q9BZI7 41-189, looked up, UPF3B, human, residues 41-189 with the disease-causing (XLID) mutation Y160D; Y160D is a patient mutation and is also used as a phosphomimetic; also called UPF3B-Y160D; phosphomimetic/disease mutation; source: E. coli BL21 Rosetta2(DE3), purified (Ni-NTA, TEV, reverse IMAC, ion exchange)) DRNKEKKEALSKVVIRRLPPTLTKEQLQEHLQPMPEHDYFEFFSNDTSLYPHMYARAYINFKNQEDIILFRDRFDGYVFLDNKGQEYPAIVEFAPFQKAAKKKTKKRDTKVGTIDDDPEDRKFLESYATDNEKMTSTPETLLEEIEAKN | 140 | – |
| UPF3A-58–206-Iso1 (domain or fragment, human, UniProt Q9H1J1 58-206, looked up, Codon-optimized for E. coli, gene-synthesized; also called UPF3A-58–208 (as printed once); source: E. coli BL21 Rosetta2(DE3), purified (Ni-NTA, TEV, reverse IMAC, ion exchange)) KPREEKRTALSKVVIRRLPPGLTKEQLEEQLRPLPAHDYFEFFAADLSLYPHLYSRAYINFRNPDDILLFRDRFDGYIFLDSKGLEYPAVVEFAPFQKIAKKKLRKKDAKTGSIEDDPEYKKFLETYCVEEEKTSANPETLLGEMEAKT | 0.22 | – |
| UPF3A-58–206-RRM* A101S-A102N-L104T (domain or fragment, human, UniProt Q9H1J1 58-206, looked up, also called RRM* construct; source: E. coli BL21 Rosetta2(DE3), purified (Ni-NTA, TEV, reverse IMAC, ion exchange)) KPREEKRTALSKVVIRRLPPGLTKEQLEEQLRPLPAHDYFEFFSNDTSLYPHLYSRAYINFRNPDDILLFRDRFDGYIFLDSKGLEYPAVVEFAPFQKIAKKKLRKKDAKTGSIEDDPEYKKFLETYCVEEEKTSANPETLLGEMEAKT | 0.77 | – |
| UPF3A-58–206-NOPS* C185A-V186T-E187D (domain or fragment, human, UniProt Q9H1J1 58-206, looked up, also called NOPS* construct; source: E. coli BL21 Rosetta2(DE3), purified (Ni-NTA, TEV, reverse IMAC, ion exchange)) KPREEKRTALSKVVIRRLPPGLTKEQLEEQLRPLPAHDYFEFFAADLSLYPHLYSRAYINFRNPDDILLFRDRFDGYIFLDSKGLEYPAVVEFAPFQKIAKKKLRKKDAKTGSIEDDPEYKKFLETYATDEEKTSANPETLLGEMEAKT | 2.6 | – |
| 24mer dsDNA (dsDNA) DNA 1: CCCTGAGCTGACGCAGCACCTGGG DNA 2: CCCAGGTGCTGCGTCAGCTCAGGG | – | Kd (UPF3B-WT; label: 5' HEX on strand 1, blunt): 61 nM |
| B1 | – | Kd [2]: 0.47 nM; Kd (UPF3A-WT): 0.048 nM |
